{"source": "paper PMC3322389", "about": "(Structure(London, England:1993), 2012)", "proteins": {"B1": {"name": "Aureochrome1 LOV domain (AuLOV), residues 176-337 of V. frigida Aureochrome1 (domain or fragment, UniProt A8QW55 176-337, looked up)", "chain": "DSLIAQCSPEADTLLTDNPSKANRILEDPDYSLVKALQMAQQNFVITDASLPDNPIVYASRGFLTLTGYSLDQILGRNCRFLQGPETDPRAVDKIRNAITKGVDTSVCLLNYRQDGTTFWNLFFVAGLRDSKGNIVNYVGVQSKVSEDYAKLLVNEQNIEYK"}}, "molecular_target": "the molecule itself", "experiment": "AUC"}
{"protein": "B1", "values": [{"measurement": "stoichiometry N", "value": 2}]}
